The text below walks through data of patent US9089613B2, “Drug activation system” (BANGOR UNIVERSITY, priority 2009, dated 2015).

The nature of the data set: Enzyme reactivity to prodrugs before and after attachment to colloidal gold (UV/Vis, NADH oxidation at 340 nm, hydroxylamine formation at 420 nm). The class given is biochemical. The conditions noted are these: for Specific activity: CB1954 prodrug, excess NADH, 37° C., bound samples on 20 nm gold colloid at molar ratio 87:1 enzymes:gold; for Retained activity (%): compared to the same concentration of enzyme free in solution, CB1954, molar ratio 87:1 enzymes:gold. As to the method:
The ability of the different nitroreductases to metabolise the selected prodrugs is assessed as the conversion of NADH to NAD^+ by UV-vis spectra. The kinetic parameters of the purified enzymes are measured by UV-vis spectra before and after their attachment to gold particles based on their ability to use NADH or an alternative cofactor such as for example nicotinic acid riboside for the reduction of the prodrugs.
For these experiments, a 300 molar equivalents of enzyme were incubated with gold colloid, as this appeared to be the minimum amount of enzyme to cover the gold nanoparticle surface as determined by UV/Vis spectrometry, electrophoresis, and stability experiments. 3.206 nmol of the NfnB and cys-NfnB enzymes in ultra pure water were incubated with 1.5 ml 20 nm Naked Gold® (7.125×10^−3 μM) at a temperature of 4° C. overnight. As controls, the same treatment was carried out for NfnB and cys-NfnB in the absence of gold colloid. The next day the solutions were divided in half and each made up to a total volume of 970 μl using ultra pure water. To each sample, 20 μl of NADH (10 mM) were added and incubated at a temperature of 37° C. for 5 min. The absorbance spectra (750 nm-200 nm) were recorded every 1.5 min for 20 min upon the addition of 10 μl CB 1954 (10 mM) or 20 μl SN 23862 (5 mM) to the test sample, and an equivalent volume of dimethyl sulfoxide (DMSO) to the reference solution. The oxidation of NADH, measured as the decrease at 340 nm, was used as an indication of reactivity of the enzyme for the substrate. The reactivity experiments were done for enzyme: gold conjugate solutions and for enzymes free in solution.
The ability of both recombinant NfnB and cys-NfnB to activate the CB1954 prodrug, before and after attachment to the gold colloid were compared. The free enzyme is known to be active as a dimer in which each monomer is closely associated with a flavin mononucleotide (FMN) molecule, and has two substrate binding pockets as explained in Lovering et al. (Lovering A. L., Hyde E. I., Searle P. F. and White S. A., in Journal of Molecular Biology, 309: 203-213, 2001) or in Zenno et al. (Zenno S, Koike H, Tanokura M and Saigo' K, in Journal of Biochemistry, 120: 736-744, 1996). […]
The formation of hydroxylamine products was monitored at 420 nm using UV/Vis spectroscopy in the presence of enzyme and excess NADH as previously described. […]
It was observed that both the NADH and CB1954 substrates were consumed in the presence of recombinant NfnB, with the simultaneous production of the hydroxylamine product. The same experiment was performed for recombinant NfnB immobilised onto the gold colloid at a molar ratio of 87:1 enzymes to gold, to ensure that any activity measured was not due to excess enzyme free in solution. […]

B1: NfnB (unbound): his-tagged wildtype NfnB nitroreductase from Escherichia coli K12, free in solution (protein, UniProt P38489 1-217, looked up)
Oxygen-insensitive NAD(P)H …: MDIISVALKRHSTKAFDASKKLTPEQAEQIKTLLQYSPSSTNSQPWHFIVASTEEGKARVAKSAAGNYVFNERKMLDASHVVVFCAKTAMDDVWLKLVVDQEDADGRFATPEAKAANDKGRKFFADMHRKDLHDDAEWMAKQVYLNVGNFLLGVAALGLDAVPIEGFDAAILDAEFGLKEKGYTSLVVVPVGHHSVEDFNATLPKSRLPQNITLTEV
modifications: His tag
notes: his-tagged wildtype NfnB nitroreductase from Escherichia coli K12, free in solution
Consider B1, for which the Specific activity stood at 0.169 µmol/min/mg and the “Retained activity (%)” value is recorded as 100%.

B2: NfnB (bound to gold): recombinant NfnB nitroreductase immobilised onto 20 nm gold colloid (conjugate, UniProt P38489 1-217, looked up)
Oxygen-insensitive NAD(P)H …: MDIISVALKRHSTKAFDASKKLTPEQAEQIKTLLQYSPSSTNSQPWHFIVASTEEGKARVAKSAAGNYVFNERKMLDASHVVVFCAKTAMDDVWLKLVVDQEDADGRFATPEAKAANDKGRKFFADMHRKDLHDDAEWMAKQVYLNVGNFLLGVAALGLDAVPIEGFDAAILDAEFGLKEKGYTSLVVVPVGHHSVEDFNATLPKSRLPQNITLTEV
modifications: immobilised on gold colloid
notes: recombinant NfnB nitroreductase immobilised onto 20 nm gold colloid
Regarding B2, the Specific activity is 0.168 µmol/min/mg and the “Retained activity (%)” value amounted to 99.5%.
